Experimental data from paper doi:10.1101/2024.06.27.600884.

Columns and labels:
Experiment in all cases: EMSA
TRF2ΔBΔHinge = TRF2ΔBΔHinge (UniProt Q15554 87-287+484-542, internal_change)
Myc-TRF2ΔBΔTRFH (RRL) = Myc-TRF2ΔBΔTRFH (RRL) (UniProt Q15554 288-542)
TRF2ΔB-F59A = TRF2ΔB-F59A (UniProt Q15554 87-542, F101A)
TRF2ΔBΔTRFH = TRF2ΔBΔTRFH (UniProt Q15554 288-542)
Myc-TRF2ΔBΔHinge (RRL) = Myc-TRF2ΔBΔHinge (RRL) (UniProt Q15554 87-287+484-542, internal_change)
TRF2ΔB = TRF2ΔB (UniProt Q15554 87-542)
Myc-TRF2ΔB (RRL) = Myc-TRF2ΔB (RRL) (UniProt Q15554 87-542)

Measured: binding result

B1: 4-repeat telomeric probe (dsDNA)
DNA 1: GTACCCGGGGATCGTCGACTCTAGAGGGGCCCTAACCCTAACCCTAACCCTAACCCGGGCTCGAATTCGATCCTCTAGAGTCGACCTGCAGGCATGCAAGCU
DNA 2: AGCTTGCATGCCTGCAGGTCGACTCTAGAGGATCGAATTCGAGCCCGGGTTAGGGTTAGGGTTAGGGTTAGGGCCCCTCTAGAGTCGACGATCCCCGGGUAC
modifications: Cy5.5-dUTP incorporated by Klenow fill-in (U near both 3' ends)
binds: TRF2ΔBΔHinge | Myc-TRF2ΔBΔTRFH (RRL) | TRF2ΔB-F59A | TRF2ΔBΔTRFH | Myc-TRF2ΔBΔHinge (RRL) | TRF2ΔB | Myc-TRF2ΔB (RRL)
